B1: Methanocaldococcus jannaschii CorA (natural protein, UniProt Q58439 1-317, looked up)
chain: MITVIAIAKDGSIVEPKLDEISFEDYRLIWIDCYDPKDEELYKLSKKIGISVSDLQIGLDEQEIPRVEEDEDFYLIIYKAPLFEEDITTTSLGIYIKNNLLLTIHSDKIKAIGRLHKLISTKKPRIVFERGIGFLLYHILNEITRSYSRILMNLEDELEELEDKLLAGYDREVMEKILGLRKTLVYFHKSLIANRDVLVLLKRKYLPITTKEDRENFEDLYYDTLQLIDMSATYREVLTSMMDITLSLENIKMNQIMKILTMVTTIFAVPMWITGIYGMNFSYLPLANNPQGFWLVMALMVVIIMIFVYIFRRSGWI
notes: CorA magnesium channel (divalent metal ion transporter) of Methanocaldococcus jannaschii, E. coli codon-optimised, in pET15b; The HA tag is said to precede MjCorA; the His-tag was removed by thrombin; also called MjCorA; McCorA
B2: WzzB^ST (natural protein)
chain: MTVDSNTSSGRGNDPEQIDLIELLLQLWRGKMTIIVAVIIAILLAVGYLMIAKEKWTSTAIITQPDAAQVATYTNALNVLYGGNAPKISEVQANFISRFSSAFSALSEVLDNQKEREKLTIEQSVKGQALPLSVSYVSTTAEGAQRRLAEYIQQVDEEVAKELEVDLKDNITLQTKTLQESLETQEVVAQEQKDLRIKQIEEALRYADEAKITQPQIQQTQDVTQDTMFLLGSDALKSMIQNEATRPLVFSPAYYQTKQTLLDIKNLKVTADTVHVYRYVMKPTLPVRRDSPKTAITLVLAVLLGGMIGAGIVLGRNALRSYKPKAL
notes: WzzB^ST, bacterial inner membrane polysaccharide copolymerase (O-antigen chain length regulator); the AlphaFold2 model AF-Q04866-F1 of the full-length protein was fitted into the map; periplasmic domain residues 55-289, TM residues 20-54 and 289-319; source: extraction and purification as previously described [65]; purified, in 20 mM Tris pH 7.5, 150 mM NaCl, 0.025% DDM; copies: 12

How the values were obtained:
[1] = target: the molecule itself; assay: cryo-EM structure; MjCorA at 2 mg/mL in 50 mM Tris/HCl pH 8.0, 200 mM NaCl, DDM; initial 3D classification of ~550,000 particles, binned x4, resolution limited to ~6 Å
[2] = target: the molecule itself; assay: cryo-EM 2D class averages; WzzB^ST in DDM; 2D classes and an unmasked 3D reconstruction; smaller oligomer and end-to-end pseudo-D-symmetrical pairs of complexes
[3] = target: the molecule itself; assay: cryo-EM structure; WzzB^ST at 10 mg/mL in 20 mM Tris pH 7.5, 150 mM NaCl, 0.025% DDM; single-particle analysis in RELION 5, ~4.2 Å, C6 ring of dimers; AlphaFold2 model fitted and refined

| Protein | stoichiometry N [1] | stoichiometry N [2] | stoichiometry N [3] |
| --- | --- | --- | --- |
| B1 | 5 |  |  |
| B2 |  | ~4 | 12 |
